The values that follow come from patent US20180273635A1 (Zymeworks, published 2018).

For experiment [1], the target named is T1, Recombinant human HER2 (human, UniProt P04626 23-652).
T1 construct: extracellular domain; analyte of the SPR assays; also called HER2 ECD; ECD2 of HER2
Kind of experiment: SPR, FSA captured on anti-human Fc, HER2 flowed, 25 C, after protein A and SEC.

Experiment [2] has as its target T2, Recombinant human HER2 (human, UniProt P04626 23-652).
T2 construct: extracellular domain; also called HER2 ECD
Briefly: SPR at 25 C, affinity against WT v10013.
Procedure: (§1) The affinity towards HER2 ECD of the samples was measured by SPR on a Biacore T200 as follows. Between 2000 and 4000 RU of anti-human Fc injected at concentration between 5 and 10 μg/ml was immobilized on a CM5 chip using standard amine coupling. Antigen-binding constructs were captured on the anti-human Fc (injected at concentration at 0.51 microg/mL in PBST, 1 min at 10 microl/min) at response levels ranging from 120-270 RU. […] HER2 dilutions were analyzed in duplicates. Sensograms were fit globally to a 1: 1 Langmuir binding model, using the software provided with the Biacore T200. All experiments were conducted at 25° C.

Experiment [3] addresses T2, Recombinant human HER2. Briefly: SPR at 25 C, affinity against v10014 (itself, reference).
Procedure: as §1

B1: variant 12471 (antibody, human IgG1, kappa, name in Kabat numbering, V domains shown)
VH: EVQLVESGGGLVQPGGSLRLSCAASGFTFADYTMDWVRQAPGKGLEWVGDVNPNSGGSIYNQRFKGRFTFSVDRSKNTLYLQMNSLRAEDTAVYYCARNLGPSFYFDYWGQGTLVTVSS
VL: DIQMTQSPSSLSASVGDRVTITCKASQDVSIGVAWYQQKPGKAPKLLIYSASYRYTGVPSRFSGSGSGTDFTLTISSLQPEDFATYYCQQYYIYPATFGQGTKVEIKR
notes: FSA, bivalent, wild type Fc; also called v12471; FSA version of v9996
As usually defined, the Kd is the constant that tells how readily two partners part at equilibrium. Consider B1, for which the Kd with Recombinant human HER2 [1] is 1.8 nM.

B2: Variant 10014 (pertuzumab T30A / Y96A, one-armed format) (antibody)
heavy: EVQLVESGGGLVQPGGSLRLSCAASGFTFADYTMDWVRQAPGKGLEWVADVNPNSGGSIYNQRFKGRFTLSVDRSKNTLYLQMNSLRAEDTAVYYCARNLGPSFYFDYWGQGTLVTVSSASTKGPSVFPLAPSSKSTSGGTAALGCLVKDYFPEPVTVSWNSGALTSGVHTFPAVLQSSGLYSLSSVVTVPSSSLGTQTYICNVNHKPSNTKVDKKVEPKSCDKTHTCPPCPAPELLGGPSVFLFPPKPKDTLMISRTPEVTCVVVDVSHEDPEVKFNWYVDGVEVHNAKTKPREEQYNSTYRVVSVLTVLHQDWLNGKEYKCKVSNKALPAPIEKTISKAKGQPREPQVYVYPPSRDELTKNQVSLTCLVKGFYPSDIAVEWESNGQPENNYKTTPPVLDSDGSFALVSKLTVDKSRWQQGNVFSCSVMHEALHNHYTQKSLSLSPG
light: not shown
Fc: not shown
notes: Monovalent one-armed (OA) antibody; also called v10014
For the molecule B2, the “Fold wrt WT” value with Recombinant human HER2 [2] stood at 7 fold. In addition, the “Fold wrt v10014” value in the experiment with Recombinant human HER2 [3] was determined as 1 fold.
